Data taken from paper PMC12559329.

B1: (CAG)4 loop DNA (dsDNA)
DNA 1: ACGTCAGAGTCGCTGCGCTCAGTCGTTCAACTGCTCAGCAGCAGCAGTAACTATCGTCTTGAATCCAACCCGGTAAGATACG
DNA 2: GCGTATCTTACCGGGTTGGATTCAAGACGATAGTTAAGCAGTTGAACGACTGAGCGCAGCGACTCTGACGT
modifications: biotin on both strands (position in bold, not recoverable)
B2: (CAG)4 loop DNA with nick 3 nt downstream of loop (dsDNA)
DNA 1: ACGTCAGAGTCGCTGCGCTCAGTCGTTCAACTGCTCAGCAGCAGCAGTAA
DNA 2: TAACTATCGTCTTGAATCCAACCCGGTAAGATACG
DNA 3: GCGTATCTTACCGGGTTGGATTCAAGACGATAGTTAAGCAGTTGAACGACTGAGCGCAGCGACTCTGACGT
modifications: biotin on bottom strand; others unclear (bold lost)

Target: MutSβ (MSH2-MSH3) (human, UniProt P43246;P20585 1-934;1-1137)
Experiment: EMSA; 2 mM ATP, 5 mM Mg2+, pUC19 competitor; 25 mM Tris-acetate pH 7.5, 1 mM DTT, 2 mM ATP, 5 mM MgCl2, 0.1 mg/ml albumin, 0.5 nM DNA, 3 ng/µl pUC19 competitor, 37 °C 30 min; native 6% PAGE
Conditions: protein: recombinant, tags: N-terminal FLAG on MSH2, N-terminal 6xHis on MSH3, copies: 1;1, label: 3'-32P on bottom strand (TdT, dCTP), 5' overhang 1 nt (G) on bottom

Row | Binder | binding result (12-nt extrahelical (CAG)4 loop in top strand) | binding result (12-nt loop and nick in top strand, as printed both left and right oligos contain the TAA at the junction (3 nt redundant))
1 | B1 | binds | 
2 | B2 |  | binds
